From patent US20220396632A1 (VERSEAU THERAPEUTICS, published 2022) come the findings set out here.

Broadly, the EC50 is the concentration at which the effect is half-maximal. Read a low EC50 as a more potent agent.

Assay [1] deals with T1, Biotin PSGL-1(42-62) E45A peptide (C-terminal Lys-biotin).
T1 peptide: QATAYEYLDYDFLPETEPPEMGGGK
In words: ELISA, streptavidin-bound Ala peptide. For orientation: An ELISA detects its analyte on a solid surface through an enzyme-linked reagent.

Assay [2] deals with T2, Biotin PSGL-1(42-62) Y46A peptide (C-terminal Lys-biotin).
T2 peptide: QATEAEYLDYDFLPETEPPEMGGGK
In words: ELISA, streptavidin-bound Ala peptide.

For the next assay, the target named is T3, E58A (C-terminal Lys-biotin).
T3 construct: alanine-scan peptide; also called Biotin PSGL-1(42-62) E58A peptide; 58E
T3 peptide: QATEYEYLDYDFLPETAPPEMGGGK
Nature of the assay: alanine-scan ELISA, streptavidin-immobilized biotin peptide [cont.].

The next assay concerns the target T4, T44A (C-terminal Lys-biotin).
T4 construct: alanine-scan peptide; also called Biotin PSGL-1(42-62) T44A peptide; 44T
T4 peptide: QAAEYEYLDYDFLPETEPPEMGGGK
Described as above.

For assay [3], the target named is T5, Biotin PSGL-1(42-62) D50A peptide (C-terminal Lys-biotin).
T5 peptide: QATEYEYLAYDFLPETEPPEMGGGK
The description is as above.

The target in a further assay is T6, T57A (C-terminal Lys-biotin).
T6 construct: alanine-scan peptide; also called Biotin PSGL-1(42-62) T57A peptide; 57T
T6 peptide: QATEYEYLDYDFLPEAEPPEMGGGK
The description is as above.

Assay [4] concerns the target T7, Biotin PSGL-1(42-62) L49A peptide (C-terminal Lys-biotin).
T7 peptide: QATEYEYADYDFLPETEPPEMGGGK
Described as above.

Assay [5] concerns the target T2, Biotin PSGL-1(42-62) Y46A peptide. The description is as above.
The target of a further assay is T8, E61A (C-terminal Lys-biotin).
T8 construct: alanine-scan peptide; also called Biotin PSGL-1(42-62) E61A peptide; 61E
T8 peptide: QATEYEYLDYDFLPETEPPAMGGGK
The description is as above.

A further assay has as its target T9, P60A (C-terminal Lys-biotin).
T9 construct: alanine-scan peptide; also called Biotin PSGL-1(42-62) P60A peptide; 60P
T9 peptide: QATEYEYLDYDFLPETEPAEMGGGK
Described as above.

The target of a further assay is T10, P59A (C-terminal Lys-biotin).
T10 construct: alanine-scan peptide; also called Biotin PSGL-1(42-62) P59A peptide; 59P
T10 peptide: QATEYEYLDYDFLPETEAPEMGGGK
Described as above.

A further assay addresses T11, Q42A (C-terminal Lys-biotin).
T11 construct: alanine-scan peptide; also called Biotin PSGL-1(42-62) Q42A peptide; 42Q
T11 peptide: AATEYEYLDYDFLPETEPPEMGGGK
Described as above.

Assay [6] has as its target T12, Biotin PSGL-1(42-62) E56A peptide (C-terminal Lys-biotin).
T12 peptide: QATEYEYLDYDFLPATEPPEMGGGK
Nature of the assay: ELISA, streptavidin-bound Ala peptide.

Assay [7] addresses T13, Biotin PSGL-1(105-125) peptide (human, N-terminal acetyl; C-terminal Lys-biotin).
T13 peptide: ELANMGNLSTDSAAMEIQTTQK
Nature of the assay: ELISA, plate-bound peptide or protein. The method in brief: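 Ab binding ELISA: mAb (single conc. or dilution series) in 3% BSA/PBS-T pH 7.4 on immobilized PSGL-1 protein or SA-biotin peptide, 45 min 37 °C; 3× wash; HRP anti-IgG 45 min 37 °C; TMB, A450. Dupl. avg., bkgd subtracted.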

Assay [8] addresses T5, Biotin PSGL-1(42-62) D50A peptide. Nature of the assay: ELISA, streptavidin-bound Ala peptide.
For assay [9], the target named is T14, PSGL-1 endogenously expressed on HL-60 cells (UniProt Q14242 42-412).
T14 construct: whole, on cells
T14 sequence (looked up): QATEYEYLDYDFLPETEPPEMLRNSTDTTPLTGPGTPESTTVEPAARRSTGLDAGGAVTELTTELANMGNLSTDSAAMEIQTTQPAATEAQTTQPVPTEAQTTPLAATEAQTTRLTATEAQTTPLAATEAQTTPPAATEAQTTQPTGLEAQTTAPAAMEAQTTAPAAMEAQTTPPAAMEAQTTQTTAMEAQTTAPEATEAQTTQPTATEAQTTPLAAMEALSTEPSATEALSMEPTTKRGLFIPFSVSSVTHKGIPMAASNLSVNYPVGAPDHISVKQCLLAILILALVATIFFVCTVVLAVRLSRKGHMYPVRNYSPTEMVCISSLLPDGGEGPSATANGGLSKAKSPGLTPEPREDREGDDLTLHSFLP
Nature of the assay: flow cytometry on HL-60 cells; against parent 20I15. Here is the method: A typical flow cytometry assay was performed by resuspending HL-60 cells in FACS buffer (5% FBS and 0.05% Sodium Azide in PBS, pH 7.2) on ice, pelleting cells by centrifugation at 500×g for 3 min, washing cells with FACS buffer, and then blocking Fc receptors on the cells with Fc block (human TruStain FcX™, BioLegend Cat. #422302) on ice for 10 min. After washing, 50,000 cells/50 ul in FACS buffer was added to each well of a 96-well round bottomed plate (Costar, Cat. #3797), and 50 ul of serially diluted (0.06 nM-1.0 uM) test or isotype control antibody was added into duplicate wells. The plate was covered and incubated on ice for 1 h. After washing, Phycoerythrin (PE) conjugated anti-human IgG secondary antibody (Abcam; Cat. #ab99825) was added to each well and the plate incubated in the dark on ice for 30 min. After washing, the cells were fixed (1% paraformaldhyde).
(In general: A flow cytometer gives signals particle by particle.)

B1: 16L15 (antibody, V domains shown)
VH: DVKLVESGGGLVKLGGSLKLSCAASGFTFSSYYMSWVRQTPEKRLEWVATISNGGGSTYYPDSVKDRFTISRDNAKNTLYLQMSSLNSEDTAVYYCAKPLYYSNPWFAYWGQGTLVTVSA
VL: DVLLTQTPLSLPVSLGDQASISCRSSQSIVHSNGNTYLEWYLQKPGQSPKLLIYKVSNRFSGVPDRFSGSGSGTDFTLKISRVEAEDLGVYYCFQGSHVPRTFGGGTKLEIK
notes: From mouse immunisation; only variable domains given
Take B1: the half-maximal effective concentration (EC50) in assay [1] came out at 5.34 nM; in assay [2], 4.44 nM.

B2: 9F9 (antibody, V domains shown)
VH: EVQLVETGGGLVQPKGSLKLSCAASGFTFNTNAMNWVRQAPGKGLEWVARIRSKSNNYATYYADSVKDRFTISRDDTQSMIYLQMNNLKTEDTGMYYCVRGGSYWYFDVWGAGTTVTVSS
VL: DVLMTQTPLSLPVSLGDQASISCRSSQSIVNSNGNTYLEWYLQKPGQSPKLLIYKVSNRFSGVPDRFSGSGSGTDFTLKISRVEAEDLGVYYCFQGSHVPWTFGGGTKLEIK
notes: Control anti-PSGL-1 mAb, recombinant; only variable domains given; also called 9F6
B2: the binding result (with E58A; in the assay with T44A; in assay [3]; in the assay with T57A; in assay [4]; in assay [5]) was “binds” throughout. Also, the binding result in the assay with E61A, with P60A, with P59A and with Q42A was “binds” in each case.

B3: 43B6 (antibody, V domains shown)
VH: EVQLQQSGPDLVKPGALVKISCKASGYSFTAYYIHWVKQSHGKSLEWIGRVNPNTGGTSYNPKFKGKAILNVDKSSSTAYMELRSLTSEDSAVYYCARSGSPYYRYDDWGQGTTLTVSS
VL: ENVLTQSPAIMSASPGEKVTMTCRASSTVNSTYLHWFQQKSGASPKLWIYGSSNLASGVPARFSGSGSGTSYSLTISSVEAEDAATYYCQQYSGYPLTFGAGTTLELK
notes: Control anti-PSGL-1 mAb, recombinant; only variable domains given; also called 43B3
Molecule B3 yielded a 50% effective concentration (EC50) in [6] of 4.25 nM.

B4: 16E17 (antibody, V domains shown)
VH: QIQLVQSGPELKKPGETVKISCKASGYAFTTYGMSWVKQAPGKGLKWMGWINTYSGVPKYADDFKGRFAFSLETSASTAYLHINNLKNEDTATYFCGRHYYGSSYFDYWGQGTTLTVSS
VL: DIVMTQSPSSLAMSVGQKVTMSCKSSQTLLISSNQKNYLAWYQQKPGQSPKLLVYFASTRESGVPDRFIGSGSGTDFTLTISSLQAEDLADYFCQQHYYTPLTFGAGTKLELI
notes: as for B1
Take B4: in assay [7], the response was half-maximal at 26.7 nM (EC50).

B5: 18F02 (antibody, V domains shown)
VH: QVQLQQPGAELVKPGASVKLSCKASGYTFTSYWMHWVKQRPGQGLEWIGMIHPNSGRTNYNEKFKSKATLTVDKSSSTAYMQLSSLTSEDSAVYYCARSDYWGQGTTLTVSS
VL: DIVMTQAAFSNPVTLGTSASISCRSSKSLLHSDGITYLYWFLQRPGQSPQLLIYRMSNLASGVPDRFSGSGSGTDFTLRISRVEAEDVGVYYCAQMLEFPRTFGGGTKLEIK
notes: as for B1
In assay [8], B5 gave a half-maximal effective concentration (EC50) of 4.27 nM.

B6: 20I15 (antibody, V domains shown)
VH: EVKLVESGGGLVQPGGSLSLSCAASGFTFTDYYMSWVRQPPGKALEWLGFIRNKANGYTTEYSASVKGRFTISRDNSQSILYLQMNALRAEDSATYYCARTYLRRGYFDVWGTGTTVTVSS
VL: DIVLTQSPASLAVSLGQRATISCRASKSVSTSGYSYMHWFQQKPGQPPKLLIYLASNLESGVPARFSGSGSGTDFTLNIHPVEEEDAATYYCQHSRELPLTFGAGTKLELK
notes: From mouse immunisation; only variable domains given; also called 20115
With B6, in [9], the “HL-60 EC50 (normalized)” value is 1 fold.
